Test results from patent US20080181886A1 (Genentech, published 2008).

T1: TRX-APRIL (mouse, UniProt Q9D777 104-241)
T1 construct: Named only as TRX-APRIL
T1 sequence (looked up): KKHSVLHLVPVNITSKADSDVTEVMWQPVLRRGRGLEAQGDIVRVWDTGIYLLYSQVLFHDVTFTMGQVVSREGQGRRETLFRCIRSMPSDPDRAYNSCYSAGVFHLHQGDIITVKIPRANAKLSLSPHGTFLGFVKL

T2: Murine APRIL (mouse, UniProt Q9D777 105-241, limits assumed)
T2 sequence (looked up): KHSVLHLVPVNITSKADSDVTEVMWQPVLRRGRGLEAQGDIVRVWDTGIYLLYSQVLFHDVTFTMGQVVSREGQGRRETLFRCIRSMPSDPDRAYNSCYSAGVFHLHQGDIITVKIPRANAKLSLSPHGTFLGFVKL


Tests used:
TRX-APRIL = target: T1, TRX-APRIL; test: SPR competition: ligand in solution against immobilized BCMA-Fc
Experimental: (§2) Surface plasmon resonance (SPR) measurements on a BIAcore 3000 instrument (Pharmacia Biosensor) were used to measure binding affinities of receptors to immobilized APRIL and BAFF by competition binding. […] In all experiments flow cell 1 was ethanolamine-blocked and used as the reference cell. Washing with 10 mM HCl regenerated flow cells between sample injections. […] The concentration of ligand that provided a slope of about 1 for the initial on-rate of the observed sensorgrams was selected as the fixed concentration to be used in the competition experiments. In all experiments where BAFE was the ligand, the buffer used was composed of 10 mM HEPES, pH 7.2, 150 mM NaCl, and 0.005% Tween-20. In all experiments where TRX-APRIL was the ligand selected, the buffer was composed of 20 mM Tris-HCl, pH 8.0, 200 mM NaCl, and 0.005% Tween-20. […] A linear fit of the initial on-rate of the observed sensorgrams was used to calculate the binding rate (V). The IC₅₀ values were calculated using a four-parameter curve fit (y=((m1−m4)/(1+(m0/m3)̂m2))+m4) of the initial binding rates for the receptor/control (Vᵢ/Vₒ) as a function of receptor concentration.

human BAFF [1] = target: T3, human BAFF (human, UniProt Q9Y275 82-285, limits assumed); test: as above
T3 sequence (Q9Y275 82-285 limits assumed): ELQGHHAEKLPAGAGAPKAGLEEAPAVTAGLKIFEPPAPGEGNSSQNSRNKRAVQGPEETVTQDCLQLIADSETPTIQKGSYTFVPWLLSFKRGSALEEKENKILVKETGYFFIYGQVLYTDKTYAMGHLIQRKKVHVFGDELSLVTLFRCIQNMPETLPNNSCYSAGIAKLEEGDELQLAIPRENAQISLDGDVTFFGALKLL
Experimental: as §2

Murine APRIL [2] = target: T2, Murine APRIL; test: shotgun scan, phage display
human BAFF [3] = target: T3, human BAFF; test: shotgun scan, phage display
Murine APRIL [4] = target: T2, Murine APRIL; test: NNS library, phage display;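 also: ligand versus display occurrence-to-degeneracy ratio and higher means enriched by binding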
Experimental: (§1) This new phage library was subjected to sorting against either BAFF, APRIL or the display target antibody. After 3 rounds of sorting, approximately 48 clones were picked from each selection and the DNA sequences of the phage clones were determined. […] The normalized F′ value corrects for display bias and is calculated as the percent occurrence to percent degeneracy ratio for ligand selection divided by the percent occurrence to percent degeneracy ratio for display efficiency. Percent occurrence is calculated by dividing the number of times a particular amino acid appeared at a particular position by the total number of amino acids sequenced at that position followed by multiplying by 100. Percent degeneracy is calculated by dividing the degeneracy in code for a particular amino acid divided by the total degeneracy possible at that position followed by multiplying by 100 (e.g., if only A, G and I were selected, total degeneracy possible would be 5).

human BAFF [5] = target: T3, human BAFF; test: NNS library, phage display;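 also: ligand versus display occurrence-to-degeneracy ratio and higher means enriched by binding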
Experimental: as §1

Row | Binder | IC50 (TRX-APRIL) [nM] | IC50 (human BAFF [1]) [nM] | F (APRIL) (Murine APRIL [2]) | F (BAFF) (human BAFF [3]) | F' APRIL (Murine APRIL [4]) | F' BAFF (human BAFF [5])
1 | GSPWSLSCRKEQGKFYDHLLRDCISCASICGQHPKQCAYFCENKLR (receptor, E. coli, cleaved from TRX-His fusion; residue numbers are those of native human TACI (293 aa); also called TACI CRD2) [TACI_d2 (second cysteine-rich domain, CRD2, residues 68-109 of human TACI)] | 6 | 2 | – | – | – | –
2 | SLSCRKEQGKAYDHLLRDCISCASICGQHPKQCAYFCENKLR (receptor, phage library variant, format as m9) [TACI_d2 F78A] | – | – | 29 | 1.1 | 0 | 0
3 | SLSCRKEQGKFYDHLLRDCISCASVCGQHPKQCAYFCENKLR (receptor, phage library variant, format as m9) [TACI_d2 I92V] | – | – | 3.3 | 0.5 | 6 | 9
4 | SLSCRKEQGKFYDHLLRDCISCASICGQHPKQCAYFCETKLR (receptor, phage library variant, format as m9) [TACI_d2 N106T] | – | – | 1.6 | 1.2 | – | –
5 | SLSCRKEQGKFYDHLLRDCISCASICGQHPKQCAYFCENKVR (receptor, phage library variant, format as m9) [TACI_d2 L108V] | – | – | 0.9 | 1.2 | – | –
6 | SLSCGKEQGKFYDHLLRDCISCASICGQHPKQCAYFCENKLR (receptor, phage library variant, format as m9) [TACI_d2 R72G] | – | – | 0.6 | 0.4 | – | –
7 | SLSCRKEQGKVYDHLLRDCISCASICGQHPKQCAYFCENKLR (receptor, phage library variant, format as m9) [TACI_d2 F78V] | – | – | 5.2 | 0.8 | 1 | 1
8 | SLSCRKEQGKFYDHLLRDCISCASICGQHPKQCAYFCENKLG (receptor, phage library variant, format as m9) [TACI_d2 R109G] | – | – | 1.2 | 1.2 | – | –
9 | SLSCRKEQGKFYDHLLRDCISCASICGQHPKQCAYFCENKLP (receptor, phage library variant, format as m9) [TACI_d2 R109P] | – | – | 1.2 | 1.2 | – | –
10 | SLSCRKEQGKFYDHLLRDCISCASICGQHPTQCAYFCENKLR (receptor, phage library variant, format as m9) [TACI_d2 K98T] | – | – | 6.4 | 8.7 | – | –
11 | SLSCRKEQGKFYDHLLRDCISCASICGQHPKQCADFCENKLR (receptor, phage library variant, format as m9) [TACI_d2 Y102D] | – | – | 0.8 | 0.6 | – | –
12 | SLSCRKEQGKFYDHLLRDCISCASTCGQHPKQCAYFCENKLR (receptor, phage library variant, format as m9) [TACI_d2 I92T] | – | – | 6 | 0.9 | 3 | 7
13 | SLSCRKEQGKFYDHLLRDCISCASICGQHPKQCAYFCENALR (receptor, phage library variant, format as m9) [TACI_d2 K107A] | – | – | 0.9 | 1.1 | – | –
14 | SLSCAKEQGKFYDHLLRDCISCASICGQHPKQCAYFCENKLR (receptor, phage library variant, format as m9) [TACI_d2 R72A] | – | – | 1.1 | 0.4 | – | –
15 | SLSCRKEQGKFYDHVLRDCISCASICGQHPKQCAYFCENKLR (receptor, phage library variant, format as m9) [TACI_d2 L82V] | – | – | > 20 | > 25 | – | –
16 | SLSCRKEPGKFYDHLLRDCISCASICGQHPKQCAYFCENKLR (receptor, phage library variant, format as m9) [TACI_d2 Q75P] | – | – | 1.1 | 0.8 | – | –
17 | SLSCRKEEGKFYDHLLRDCISCASICGQHPKQCAYFCENKLR (receptor, phage library variant, format as m9) [TACI_d2 Q75E] | – | – | 0.7 | 0.7 | – | –
18 | SLSCPKEQGKFYDHLLRDCISCASICGQHPKQCAYFCENKLR (receptor, phage library variant, format as m9) [TACI_d2 R72P] | – | – | 0.7 | 0.6 | – | –
19 | SLSCRKEQGKFYDHLVRDCISCASICGQHPKQCAYFCENKLR (receptor, phage library variant, format as m9) [TACI_d2 L83V] | – | – | 4.8 | 1.6 | – | –
20 | SLSCRKEQGKFYDHLLRDCISCASICGQHPKECAYFCENKLR (receptor, phage library variant, format as m9) [TACI_d2 Q99E] | – | – | 1.6 | 0.8 | – | –
21 | SLSCRKEAGKFYDHLLRDCISCASICGQHPKQCAYFCENKLR (receptor, phage library variant, format as m9) [TACI_d2 Q75A] | – | – | 1.4 | 0.9 | – | –
22 | SLSCRKEQGKFYDHLLRDCISCASICGQHPKQCAYFCENKAR (receptor, phage library variant, format as m9) [TACI_d2 L108A] | – | – | 1 | 1.2 | – | –
23 | SLSCRKEQGKFYDHLLRDCISCASICGQHPKQCAYFCENKLA (receptor, phage library variant, format as m9) [TACI_d2 R109A] | – | – | 1.5 | 0.9 | – | –
24 | SLSCRKEQGTFYDHLLRDCISCASICGQHPKQCAYFCENKLR (receptor, phage library variant, format as m9) [TACI_d2 K77T] | – | – | 0.7 | 0.6 | – | –
25 | SLSCRKEQGKFYDHLLRDCISCASICGQHPKQCAYFCEAKLR (receptor, phage library variant, format as m9) [TACI_d2 N106A] | – | – | 1.2 | 0.9 | – | –
26 | SLSCRKEQGKFYDHLLRDCISCASICGQHPKQCAYFCENTLR (receptor, phage library variant, format as m9) [TACI_d2 K107T] | – | – | 1.1 | 1.1 | – | –
27 | SLSCRKEQGKFYDHALRDCISCASICGQHPKQCAYFCENKLR (receptor, phage library variant, format as m9) [TACI_d2 L82A] | – | – | > 29 | > 36 | – | –
28 | SLSCRKEQGKFYDHLLRDCISCASICGQHPKQCAAFCENKLR (receptor, phage library variant, format as m9) [TACI_d2 Y102A] | – | – | 1.6 | 2 | – | –
29 | SLSCRKEQGKFYDHLLRDCISCASICGQHPKPCAYFCENKLR (receptor, phage library variant, format as m9) [TACI_d2 Q99P] | – | – | 1.5 | 1.8 | – | –
30 | SLSCRKEQGKFYDHPLRDCISCASICGQHPKQCAYFCENKLR (receptor, phage library variant, format as m9) [TACI_d2 L82P] | – | – | > 49 | > 61 | – | –
